Test [1] deals with CD28 (human) (UniProt P10747). The experiment in a line: cell-based or functional assay.
Test [2] concerns the target PD-L1 (human) (UniProt Q9NZQ7). The experiment in a line: cell-based or functional assay.

Sequence of PD-L1 (human) (Q9NZQ7 19-290): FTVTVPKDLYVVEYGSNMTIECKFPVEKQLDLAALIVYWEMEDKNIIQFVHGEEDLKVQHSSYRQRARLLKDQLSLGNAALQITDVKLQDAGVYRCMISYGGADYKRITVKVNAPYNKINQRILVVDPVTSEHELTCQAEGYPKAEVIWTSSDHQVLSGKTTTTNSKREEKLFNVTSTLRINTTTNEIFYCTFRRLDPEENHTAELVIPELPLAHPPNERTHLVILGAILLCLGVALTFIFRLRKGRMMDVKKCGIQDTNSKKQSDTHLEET

In test [1], “variant CD80 IgV-Fc (effector) A71D/L72V/E95K (Fc fusion)” returned an IL-2 release, primary T cells; K562/OKT3 (No PD-L1); 10 nM of 15100; an IL-2 release, primary T cells; K562/OKT3 (No PD-L1); 100 nM of 21300; an RLU, Jurkat/IL2 reporter; K562/OKT3 aAPC, FcR Dependent Cross-Linking (No PD-L1); 0.6 nM of 1820 RLU; an RLU, Jurkat/IL2 reporter; K562/OKT3 aAPC, FcR Dependent Cross-Linking (No PD-L1); 1.9 nM of 2590 RLU. In test [1], this substance registered an RLU, Jurkat/IL2 reporter; K562/OKT3 aAPC, FcR Dependent Cross-Linking (No PD-L1); 5.6 nM of 4130 RLU; an RLU, Jurkat/IL2 reporter; K562/OKT3 aAPC, FcR Dependent Cross-Linking (No PD-L1); 16.7 nM of 5550 RLU; an RLU, Jurkat/IL2 reporter; K562/OKT3 aAPC, FcR Dependent Cross-Linking (No PD-L1); 50 nM of 7110 RLU. Further, in test [2], the RLU, Jurkat/IL2 reporter; K562/OKT3/PD-L1 aAPC, Combination of FcR and/or PD-L1 Dependent Cross-Linking; 1.9 nM is 1540 RLU; the RLU, Jurkat/IL2 reporter; K562/OKT3/PD-L1 aAPC, Combination of FcR and/or PD-L1 Dependent Cross-Linking; 5.6 nM is 2520 RLU; the RLU, Jurkat/IL2 reporter; K562/OKT3/PD-L1 aAPC, Combination of FcR and/or PD-L1 Dependent Cross-Linking; 16.7 nM is 3640 RLU; the RLU, Jurkat/IL2 reporter; K562/OKT3/PD-L1 aAPC, Combination of FcR and/or PD-L1 Dependent Cross-Linking; 50 nM came to 4030 RLU.
In test [1], “variant CD80 IgV-Fc (effector) E23G/A26S/E35D/T62N/A71D/L72V/L85M (Fc fusion)” gave an IL-2 release, primary T cells; K562/OKT3 (No PD-L1); 1 nM of 15400; an IL-2 release, primary T cells; K562/OKT3 (No PD-L1); 10 nM of 23500; an IL-2 release, primary T cells; K562/OKT3 (No PD-L1); 100 nM of 27000; an RLU, Jurkat/IL2 reporter; K562/OKT3 aAPC, FcR Dependent Cross-Linking (No PD-L1); 0.6 nM of 2020 RLU. In addition, in test [1], the RLU, Jurkat/IL2 reporter; K562/OKT3 aAPC, FcR Dependent Cross-Linking (No PD-L1); 1.9 nM was found to be 3300 RLU; the RLU, Jurkat/IL2 reporter; K562/OKT3 aAPC, FcR Dependent Cross-Linking (No PD-L1); 5.6 nM was found to be 5050 RLU; the RLU, Jurkat/IL2 reporter; K562/OKT3 aAPC, FcR Dependent Cross-Linking (No PD-L1); 16.7 nM came out at 7010 RLU; the RLU, Jurkat/IL2 reporter; K562/OKT3 aAPC, FcR Dependent Cross-Linking (No PD-L1); 50 nM was 7860 RLU. In test [2], the RLU, Jurkat/IL2 reporter; K562/OKT3/PD-L1 aAPC, Combination of FcR and/or PD-L1 Dependent Cross-Linking; 0.6 nM was determined as 1150 RLU; the RLU, Jurkat/IL2 reporter; K562/OKT3/PD-L1 aAPC, Combination of FcR and/or PD-L1 Dependent Cross-Linking; 1.9 nM came to 1950 RLU; the RLU, Jurkat/IL2 reporter; K562/OKT3/PD-L1 aAPC, Combination of FcR and/or PD-L1 Dependent Cross-Linking; 5.6 nM is 3220 RLU; the RLU, Jurkat/IL2 reporter; K562/OKT3/PD-L1 aAPC, Combination of FcR and/or PD-L1 Dependent Cross-Linking; 16.7 nM turned out to be 4040 RLU. Also, the RLU, Jurkat/IL2 reporter; K562/OKT3/PD-L1 aAPC, Combination of FcR and/or PD-L1 Dependent Cross-Linking; 50 nM in test [2] is 4140 RLU.
Take “variant CD80 IgV-Fc (effector) E35D (Fc fusion)”: in test [1], the IL-2 release, primary T cells; K562/OKT3 (No PD-L1); 1 nM amounted to 7600; the IL-2 release, primary T cells; K562/OKT3 (No PD-L1); 10 nM was 7990; the IL-2 release, primary T cells; K562/OKT3 (No PD-L1); 100 nM stood at 8380; the RLU, Jurkat/IL2 reporter; K562/OKT3 aAPC, FcR Dependent Cross-Linking (No PD-L1); 0.6 nM stood at 1400 RLU. In test [1], this substance came in with an RLU, Jurkat/IL2 reporter; K562/OKT3 aAPC, FcR Dependent Cross-Linking (No PD-L1); 1.9 nM of 1330 RLU; an RLU, Jurkat/IL2 reporter; K562/OKT3 aAPC, FcR Dependent Cross-Linking (No PD-L1); 5.6 nM of 1300 RLU; an RLU, Jurkat/IL2 reporter; K562/OKT3 aAPC, FcR Dependent Cross-Linking (No PD-L1); 16.7 nM of 1320 RLU; an RLU, Jurkat/IL2 reporter; K562/OKT3 aAPC, FcR Dependent Cross-Linking (No PD-L1); 50 nM of 1200 RLU. Further, in test [2], the RLU, Jurkat/IL2 reporter; K562/OKT3/PD-L1 aAPC, Combination of FcR and/or PD-L1 Dependent Cross-Linking; 0.6 nM was found to be 920 RLU; the RLU, Jurkat/IL2 reporter; K562/OKT3/PD-L1 aAPC, Combination of FcR and/or PD-L1 Dependent Cross-Linking; 1.9 nM worked out at 1110 RLU; the RLU, Jurkat/IL2 reporter; K562/OKT3/PD-L1 aAPC, Combination of FcR and/or PD-L1 Dependent Cross-Linking; 5.6 nM amounted to 1400 RLU; the RLU, Jurkat/IL2 reporter; K562/OKT3/PD-L1 aAPC, Combination of FcR and/or PD-L1 Dependent Cross-Linking; 16.7 nM was determined as 1760 RLU. For the same substance, the RLU, Jurkat/IL2 reporter; K562/OKT3/PD-L1 aAPC, Combination of FcR and/or PD-L1 Dependent Cross-Linking; 50 nM in test [2] worked out at 2270 RLU.
As for “variant CD80 IgV-Fc (effector) E35D/D46V/L85Q (Fc fusion)”, in test [1], the IL-2 release, primary T cells; K562/OKT3 (No PD-L1); 1 nM stood at 14300; the IL-2 release, primary T cells; K562/OKT3 (No PD-L1); 10 nM was found to be 21500; the IL-2 release, primary T cells; K562/OKT3 (No PD-L1); 100 nM turned out to be 25400; the RLU, Jurkat/IL2 reporter; K562/OKT3 aAPC, FcR Dependent Cross-Linking (No PD-L1); 0.6 nM amounted to 1880 RLU. Also, in test [1], the RLU, Jurkat/IL2 reporter; K562/OKT3 aAPC, FcR Dependent Cross-Linking (No PD-L1); 1.9 nM was found to be 2720 RLU; the RLU, Jurkat/IL2 reporter; K562/OKT3 aAPC, FcR Dependent Cross-Linking (No PD-L1); 5.6 nM came to 4400 RLU; the RLU, Jurkat/IL2 reporter; K562/OKT3 aAPC, FcR Dependent Cross-Linking (No PD-L1); 16.7 nM was found to be 6020 RLU; the RLU, Jurkat/IL2 reporter; K562/OKT3 aAPC, FcR Dependent Cross-Linking (No PD-L1); 50 nM is 7020 RLU. Also, in test [2], the RLU, Jurkat/IL2 reporter; K562/OKT3/PD-L1 aAPC, Combination of FcR and/or PD-L1 Dependent Cross-Linking; 0.6 nM came to 1420 RLU; the RLU, Jurkat/IL2 reporter; K562/OKT3/PD-L1 aAPC, Combination of FcR and/or PD-L1 Dependent Cross-Linking; 1.9 nM was found to be 2430 RLU; the RLU, Jurkat/IL2 reporter; K562/OKT3/PD-L1 aAPC, Combination of FcR and/or PD-L1 Dependent Cross-Linking; 5.6 nM worked out at 3310 RLU; the RLU, Jurkat/IL2 reporter; K562/OKT3/PD-L1 aAPC, Combination of FcR and/or PD-L1 Dependent Cross-Linking; 16.7 nM was 3640 RLU. Moreover, the RLU, Jurkat/IL2 reporter; K562/OKT3/PD-L1 aAPC, Combination of FcR and/or PD-L1 Dependent Cross-Linking; 50 nM in test [2] was 4130 RLU.
Take “variant CD80 IgV-Fc (effector) E35D/M43L/L70M (Fc fusion)”: in test [1], the IL-2 release, primary T cells; K562/OKT3 (No PD-L1); 1 nM amounted to 8020; the IL-2 release, primary T cells; K562/OKT3 (No PD-L1); 10 nM is 7710; the IL-2 release, primary T cells; K562/OKT3 (No PD-L1); 100 nM was determined as 10500; the RLU, Jurkat/IL2 reporter; K562/OKT3 aAPC, FcR Dependent Cross-Linking (No PD-L1); 0.6 nM is 1350 RLU. In test [1], this substance yielded an RLU, Jurkat/IL2 reporter; K562/OKT3 aAPC, FcR Dependent Cross-Linking (No PD-L1); 1.9 nM of 1340 RLU; an RLU, Jurkat/IL2 reporter; K562/OKT3 aAPC, FcR Dependent Cross-Linking (No PD-L1); 5.6 nM of 1400 RLU; an RLU, Jurkat/IL2 reporter; K562/OKT3 aAPC, FcR Dependent Cross-Linking (No PD-L1); 16.7 nM of 1340 RLU; an RLU, Jurkat/IL2 reporter; K562/OKT3 aAPC, FcR Dependent Cross-Linking (No PD-L1); 50 nM of 1570 RLU. In test [2], the RLU, Jurkat/IL2 reporter; K562/OKT3/PD-L1 aAPC, Combination of FcR and/or PD-L1 Dependent Cross-Linking; 0.6 nM is 1020 RLU; the RLU, Jurkat/IL2 reporter; K562/OKT3/PD-L1 aAPC, Combination of FcR and/or PD-L1 Dependent Cross-Linking; 1.9 nM was found to be 1250 RLU; the RLU, Jurkat/IL2 reporter; K562/OKT3/PD-L1 aAPC, Combination of FcR and/or PD-L1 Dependent Cross-Linking; 5.6 nM stood at 1620 RLU; the RLU, Jurkat/IL2 reporter; K562/OKT3/PD-L1 aAPC, Combination of FcR and/or PD-L1 Dependent Cross-Linking; 16.7 nM is 2050 RLU. The RLU, Jurkat/IL2 reporter; K562/OKT3/PD-L1 aAPC, Combination of FcR and/or PD-L1 Dependent Cross-Linking; 50 nM in test [2] came out at 2780 RLU.
